Assay results as given in patent US10787647B2, “HSD17B13 variants and uses thereof” (Regeneron Pharmaceuticals, Inc., priority 2017, dated 2020).

T1: recombinant human HSD17B13 (Homo sapiens, UniProt Q7Z5P4)
T1 sequence (Q7Z5P4 20-300): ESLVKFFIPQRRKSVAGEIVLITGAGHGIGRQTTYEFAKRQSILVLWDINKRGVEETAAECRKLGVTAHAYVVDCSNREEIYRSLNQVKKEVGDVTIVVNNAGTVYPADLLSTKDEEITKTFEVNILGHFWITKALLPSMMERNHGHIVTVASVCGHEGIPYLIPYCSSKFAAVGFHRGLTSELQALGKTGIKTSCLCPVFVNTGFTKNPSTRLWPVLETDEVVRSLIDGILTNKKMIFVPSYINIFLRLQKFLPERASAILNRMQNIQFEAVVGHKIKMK

T2: HSD17B13 (Homo sapiens, UniProt Q7Z5P4)
T2 construct: Transcript A, which encodes the full-length 300 amino acid protein; 10x His (C); host or cells: E. coli
T2 sequence (Q7Z5P4 with tags, fused parts or gaps): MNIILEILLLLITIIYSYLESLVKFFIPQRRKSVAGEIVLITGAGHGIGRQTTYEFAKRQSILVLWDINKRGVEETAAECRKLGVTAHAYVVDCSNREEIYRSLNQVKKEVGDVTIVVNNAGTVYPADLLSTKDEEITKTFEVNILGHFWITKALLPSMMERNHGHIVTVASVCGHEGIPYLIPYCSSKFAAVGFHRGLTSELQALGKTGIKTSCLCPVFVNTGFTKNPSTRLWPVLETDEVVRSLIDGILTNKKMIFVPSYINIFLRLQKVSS

B1: HSD17B13 Isoform A: HSD17B13 Protein Isoform A, SEQ ID NO: 12; full-length 300 amino acid protein encoded by Transcript A (protein, listed as Homo sapiens)
chain: MNIILEILLLLITIIYSYLESLVKFFIPQRRKSVAGEIVLITGAGHGIGRQTTYEFAKRQSILVLWDINKRGVEETAAECRKLGVTAHAYVVDCSNREEIYRSLNQVKKEVGDVTIVVNNAGTVYPADLLSTKDEEITKTFEVNILGHFWITKALLPSMMERNHGHIVTVASVCGHEGIPYLIPYCSSKFAAVGFHRGLTSELQALGKTGIKTSCLCPVFVNTGFTKNPSTRLWPVLETDEVVRSLIDGILTNKKMIFVPSYINIFLRLQKFLPERASAILNRMQNIQFEAVVGHKIKMK
modifications: (1)..(70) Region Encoded by Exon 1; (71)..(106) Region Encoded by Exon 2; (107)..(150) Region Encoded by Exon 3; (151)..(185) Region Encoded by Exon 4; (186)..(232) Region Encoded by Exon 5; (233)..(271) Region Encoded by Exon 6v1; (272)..(300) Region Encoded by Exon 7
B2: HSD17B13 Isoform D: HSD17B13 Protein Isoform D, SEQ ID NO: 15; prematurely truncated protein encoded by Transcript D of the rs72613567 variant (protein, listed as Homo sapiens)
chain: T2 sequence (Q7Z5P4 with tags, fused parts or gaps)
modifications: (1)..(70) Region Encoded by Exon 1; (71)..(106) Region Encoded by Exon 2; (107)..(150) Region Encoded by Exon 3; (151)..(185) Region Encoded by Exon 4; (186)..(232) Region Encoded by Exon 5; (233)..(271) Region Encoded by Exon 6v2; (272)..(274) Region Encoded by Exon 7

How the values were obtained:
[1] = target: T1, recombinant human HSD17B13; test: Substrate screening of steroid and bioactive lipid libraries against purified recombinant HSD17B13 (NADH-Glo); format: biochemical; details: putative substrate screen with recombinant protein
Protocol: Reactions were performed in a final volume of 40 μL of assay buffer (0.2 M Tris-HCl, pH 7.5) which contained 500 μM NAD^±, 5 μM bioactive lipid or 50 μM steroid (all in a final concentration of 5% DMSO), and 100 ng recombinant human HSD17B13. Reactions were incubated for 3 hours, at 23° C., after which an equal volume NADH-Glo Detection Reagent (Promega) was added. Following a 1 hour incubation at 23° C., the relative light units (RLUs) were measured on an Envision Plate Reader (Perkin Elmer). Raw RLU values were normalized as percent of control (50 μM estradiol) following subtraction of negative control (5% DMSO) using the following formula: Percent of control (POC)=100×(Sample (RLU)−Negative CTRLaverage)/(Positive CTRLaverage−Negative CTRLaverage).

HepG2 cells = test: Quantification of intracellular triglyceride content in stable cell lines; format: cell-based, human; details: for intracellular triglyceride content versus GFP control: cell lines overexpressing isoform, oleic acid treatment
Protocol: HepG2 cells were cultured in Eagle's Minimum Essential Medium supplemented with 10% fetal bovine serum. HSD17B13 transcripts A and D were sub-cloned into Myc-DDK backbone lentivirus constructs, and lentivirus were generated. HepG2 cells were infected with lentivirus carrying the HSD17B13 transcripts. Stable cell lines expressing each HSD17B13 transcript were selected with 1-3 mg/ml Geneticin G-418 sulfate in complete culture medium for two weeks. Following fixation, HSD17B13 isoforms were detected with mouse anti-Myc antibody. Lipid droplets were labeled with BODIPY FL dye (Sigma). Secondary antibodies for immunofluorescence were Alexa Fluor 488 donkey anti-rabbit IgG and Alexa Fluor 594 donkey anti-mouse IgG (Jackson ImmunoResearch).
The triglyceride (TG) content from the stable cells was determined using a TG quantification kit (Abcam). In the assay, TG are converted to free fatty acids and glycerol. The glycerol is then oxidized to generate a product which is quantified (spectrophotometry at λ=570 nm).

[2] = tested on: HEK293 cells overexpressing HSD17B13 transcript A, transcript D or GFP; test: Cell-based estradiol to estrone conversion in culture media (LC-MS); parameters: species or system human; details: overexpressed in HEK293 cells, estradiol 1 μM, 48 hours
Protocol: HEK293 cells overexpressing HSD17B13 transcript A, transcript D or green fluorescent protein (GFP, control) were used to investigate the activity of HSD17B13 against estradiol in a cell-based assay. Estradiol (1 μM) was fed to each cell type. After 48 hours, the media was collected and the concentration of estradiol and its converted product estrone were identified and quantified by LC-MS.

HSD17B13 = target: T2, HSD17B13; test: In vitro enzymatic activity of recombinant HSD17B13 isoforms A and D (NADH production, NAD(P)H-Glo); format: biochemical
Protocol: Recombinant human HSD17B13 protein was purified from E. coli (Genscript) transformed with plasmid DNA harboring HSD17B13 transcript A or transcript D. The HSD17B13 variants contained a 10× His tag at the C terminus and were purified from soluble fraction using a Ni2^+ affinity purification. Enzymatic activity was determined through measurement of NADH production using the NAD(P)H-Glo Detection System (Promega). Reactions were performed for 3 hours at 25° C. in 0.2 M Tris-HCl, pH 7.5, 0.5 mM NAD^+, 75 μM of substrate (Sigma) and 500 ng purified enzyme in a final volume of 100 μL. After incubation, 20 μL of the reaction was combined with 20 μL luciferase reagent (Promega), incubated at room temperature for 1 hour and read on an Envision Plate Reader (Perkin Elmer).

Molecule	enzymatically converted by HSD17B13 (oxidation of a hydroxyl to a ketone group) [1]	conversion of estradiol (substrate) to estrone (product) measured in the culture media [2]	intracellular triglyceride content versus GFP control (HepG2 cells)	also measured
CCCCCC(O)C=CC=CCCCCCCCC(=O)O (stereo not drawn) [13-Hydroxyoctadecadienoic acid]	enzymatically converted	–	–	–
C[C@]12CC[C@@H]3c4ccc(O)cc4CC[C@H]3[C@@H]1CC[C@@H]2O [estradiol, 17-beta estradiol]	enzymatically converted	–	–	–
CCCCC/C=C\C[C@@H](O)/C=C/C=C/C=C\[C@@H](O)CCCC(=O)O [leukotriene B4]	enzymatically converted	–	–	–
CCCCCCCC/C=C\CCCCCCCC(=O)O [oleic acid, reference compound]	–	–	–	triglyceride (TG) content (HepG2 cells; increasing concentrations of oleic acid, HepG2 GFP control and HSD17B13 Transcript A and D cell lines): increased triglyceride (TG) content
B1	–	robust conversion	No differences	–
B2	–	did not show much conversion	No differences	activity towards the three substrates (HSD17B13; estradiol, leukotriene B4, 13-Hydroxyoctadecadienoic acid, recombinant protein in vitro): greatly reduced activity; activity towards estradiol in vitro compared to HSD17B13 isoform A (HSD17B13; estradiol, recombinant protein, NAD cofactor): greatly reduced activity; enzymatic activity of the corresponding values for Isoform A (HSD17B13; substrates 17-beta estradiol, leukotriene B4, 13(S)-HODE, recombinant protein): < 10%; conversion of estradiol (substrate) to estrone (product) measured in the culture media ([2]; listed as HSD17B13 isoform D): greatly reduced activity
